The values below come from the supplement of paper PMC9112550, “Optimization of the antimicrobial peptide Bac7 by deep mutational scanning” (BMC Biology, 2022).
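Note: peptides expressed intracellularly from a pBAD plasmid library in pooled LB shake-flask culture, induced with 0.3% L-arabinose, DNA abundance read by NGS, three biological replicates, DESeq2 with apeglm shrinkage.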

The data set relates to Escherichia coli TOP10. The data set is described as follows: shrunken log2 fold change of peptide-encoding DNA abundance (4.5 h post-induction vs induction); higher = less antimicrobial activity (less host growth inhibition). The settings on record: time post-induction: 4.5 h; library: site-saturation at positions 5, 18, 19, 20.
With RRIRNRPPRLPRPRPRPCVMPRP, the “shrunken log2 fold change” value came to 0.0192.

On to RRIRNRPPRLPRPRPRPSISPRP, for which the “shrunken log2 fold change” value is -0.256.

For the sequence RRIRLRPPRLPRPRPRPYLEPRP, the “shrunken log2 fold change” value is -0.169.

With RRIRIRPPRLPRPRPRPWKTPRP, the “shrunken log2 fold change” value was -0.197.

As to RRIRQRPPRLPRPRPRPANAPRP, the “shrunken log2 fold change” value was -0.0699.

Turning to RRIRMRPPRLPRPRPRPMSMPRP, the “shrunken log2 fold change” value was determined as 0.11.

Consider RRIRLRPPRLPRPRPRPELKPRP, for which the “shrunken log2 fold change” value came out at 0.0568.

For the sequence RRIRYRPPRLPRPRPRPVHNPRP, the “shrunken log2 fold change” value is -0.353.

On to RRIRFRPPRLPRPRPRPGWGPRP, for which the “shrunken log2 fold change” value was 0.076.

As for RRIRHRPPRLPRPRPRPINHPRP, the “shrunken log2 fold change” value was -0.97.

With RRIRYRPPRLPRPRPRPFMMPRP, the “shrunken log2 fold change” value was -0.108.

As for RRIRARPPRLPRPRPRPFGFPRP, the “shrunken log2 fold change” value was 0.261.

For RRIRQRPPRLPRPRPRPLLFPRP, the “shrunken log2 fold change” value was -0.0219.

For the sequence RRIRRRPPRLPRPRPRPIWCPRP, the “shrunken log2 fold change” value was -0.0104.

Take RRIRNRPPRLPRPRPRPPTHPRP: the “shrunken log2 fold change” value worked out at 0.0725.

On to RRIRRRPPRLPRPRPRPCRMPRP, for which the “shrunken log2 fold change” value is 0.0963.

RRIRFRPPRLPRPRPRPMMQPRP: the “shrunken log2 fold change” value was -0.297.

In the case of RRIRKRPPRLPRPRPRPVNTPRP, the “shrunken log2 fold change” value is -0.207.

As for RRIRPRPPRLPRPRPRPVNVPRP, the “shrunken log2 fold change” value is -0.326.

Take RRIRTRPPRLPRPRPRPMPPPRP: the “shrunken log2 fold change” value turned out to be 0.0692.

Regarding RRIRWRPPRLPRPRPRPTDKPRP, the “shrunken log2 fold change” value is -0.0481.

In the case of RRIRVRPPRLPRPRPRPNMVPRP, the “shrunken log2 fold change” value was -0.201.

RRIRIRPPRLPRPRPRPIPQPRP: the “shrunken log2 fold change” value was -0.14.

Turning to RRIRDRPPRLPRPRPRPWYLPRP, the “shrunken log2 fold change” value was -0.11.

In the case of RRIRMRPPRLPRPRPRPFIEPRP, the “shrunken log2 fold change” value was -0.0583.

As for RRIRCRPPRLPRPRPRPGLYPRP, the “shrunken log2 fold change” value is -0.432.

For RRIRLRPPRLPRPRPRPRMQPRP, the “shrunken log2 fold change” value is -0.0604.

As for RRIRVRPPRLPRPRPRPRQVPRP, the “shrunken log2 fold change” value was 0.0645.

Take RRIRTRPPRLPRPRPRPRLGPRP: the “shrunken log2 fold change” value stood at 0.169.

Regarding RRIRDRPPRLPRPRPRPWVKPRP, the “shrunken log2 fold change” value turned out to be 0.0766.

Take RRIRERPPRLPRPRPRPRGEPRP: the “shrunken log2 fold change” value is -0.023.

On to RRIRGRPPRLPRPRPRPWHGPRP, for which the “shrunken log2 fold change” value is -0.163.

With RRIRGRPPRLPRPRPRPLELPRP, the “shrunken log2 fold change” value came out at 0.741.

As to RRIRIRPPRLPRPRPRPQPSPRP, the “shrunken log2 fold change” value is -0.214.

For the sequence RRIRQRPPRLPRPRPRPHYSPRP, the “shrunken log2 fold change” value is -0.0998.

RRIRDRPPRLPRPRPRPHYQPRP: the “shrunken log2 fold change” value stood at 0.0231.

As to RRIRPRPPRLPRPRPRPGKAPRP, the “shrunken log2 fold change” value stood at 0.37.

For the sequence RRIRKRPPRLPRPRPRPMYRPRP, the “shrunken log2 fold change” value was found to be 0.0629.

For the sequence RRIRRRPPRLPRPRPRPYPIPRP, the “shrunken log2 fold change” value was -0.269.

In the case of RRIRVRPPRLPRPRPRPTHMPRP, the “shrunken log2 fold change” value stood at 0.0408.

RRIRKRPPRLPRPRPRPDMQPRP: the “shrunken log2 fold change” value is -0.0618.

In the case of RRIRHRPPRLPRPRPRPFPVPRP, the “shrunken log2 fold change” value was 0.0399.

On to RRIRDRPPRLPRPRPRPWLRPRP, for which the “shrunken log2 fold change” value came to 0.081.

Regarding RRIRVRPPRLPRPRPRPKEHPRP, the “shrunken log2 fold change” value was determined as 0.0755.

Regarding RRIRCRPPRLPRPRPRPRFVPRP, the “shrunken log2 fold change” value was determined as 0.15.

For the sequence RRIRCRPPRLPRPRPRPAQEPRP, the “shrunken log2 fold change” value amounted to 0.101.

As for RRIRCRPPRLPRPRPRPIDIPRP, the “shrunken log2 fold change” value came to 0.0768.

On to RRIRDRPPRLPRPRPRPIMAPRP, for which the “shrunken log2 fold change” value is -0.00298.

With RRIRMRPPRLPRPRPRPPDHPRP, the “shrunken log2 fold change” value amounted to 0.456.

As to RRIRPRPPRLPRPRPRPAQHPRP, the “shrunken log2 fold change” value is 0.223.

As to RRIRTRPPRLPRPRPRPAQFPRP, the “shrunken log2 fold change” value is -0.0946.

As to RRIRKRPPRLPRPRPRPHVNPRP, the “shrunken log2 fold change” value is 0.0388.

As to RRIRFRPPRLPRPRPRPMCVPRP, the “shrunken log2 fold change” value was -0.405.

In the case of RRIRNRPPRLPRPRPRPDCGPRP, the “shrunken log2 fold change” value stood at 0.0246.

As for RRIRPRPPRLPRPRPRPSQEPRP, the “shrunken log2 fold change” value is -0.199.

With RRIRERPPRLPRPRPRPTEPPRP, the “shrunken log2 fold change” value turned out to be 0.0207.

As for RRIRDRPPRLPRPRPRPLAGPRP, the “shrunken log2 fold change” value was 0.121.

RRIRDRPPRLPRPRPRPTSMPRP: the “shrunken log2 fold change” value was 0.104.

As to RRIRSRPPRLPRPRPRPPQPPRP, the “shrunken log2 fold change” value came to 0.432.

Consider RRIRHRPPRLPRPRPRPDCWPRP, for which the “shrunken log2 fold change” value worked out at 0.0871.

RRIRLRPPRLPRPRPRPGEGPRP: the “shrunken log2 fold change” value is -0.036.

As for RRIRPRPPRLPRPRPRPWFCPRP, the “shrunken log2 fold change” value came to 0.138.

Take RRIRGRPPRLPRPRPRPHICPRP: the “shrunken log2 fold change” value was -0.0626.

Turning to RRIRNRPPRLPRPRPRPFQPPRP, the “shrunken log2 fold change” value is -0.0306.

For the sequence RRIRGRPPRLPRPRPRPQVVPRP, the “shrunken log2 fold change” value worked out at 0.0944.

On to RRIRVRPPRLPRPRPRPFLEPRP, for which the “shrunken log2 fold change” value was determined as 0.0733.

For the sequence RRIRPRPPRLPRPRPRPDGEPRP, the “shrunken log2 fold change” value stood at 0.0766.

Take RRIRTRPPRLPRPRPRPHILPRP: the “shrunken log2 fold change” value was -0.00363.

On to RRIRERPPRLPRPRPRPWKEPRP, for which the “shrunken log2 fold change” value worked out at 0.0039.

For the sequence RRIRYRPPRLPRPRPRPAPMPRP, the “shrunken log2 fold change” value was -0.0449.

Consider RRIRVRPPRLPRPRPRPYPVPRP, for which the “shrunken log2 fold change” value is -0.419.

Take RRIRGRPPRLPRPRPRPMSVPRP: the “shrunken log2 fold change” value was 0.0559.

On to RRIRFRPPRLPRPRPRPIGAPRP, for which the “shrunken log2 fold change” value was determined as 0.064.

RRIRRRPPRLPRPRPRPLGHPRP: the “shrunken log2 fold change” value was found to be 0.203.

Regarding RRIRDRPPRLPRPRPRPRHVPRP, the “shrunken log2 fold change” value was found to be 0.153.

Consider RRIRTRPPRLPRPRPRPVQYPRP, for which the “shrunken log2 fold change” value was -0.246.

Turning to RRIRSRPPRLPRPRPRPRERPRP, the “shrunken log2 fold change” value was 0.431.

RRIRDRPPRLPRPRPRPHIDPRP: the “shrunken log2 fold change” value was -0.0782.

For RRIRKRPPRLPRPRPRPQQLPRP, the “shrunken log2 fold change” value is 0.0814.

RRIRMRPPRLPRPRPRPNQQPRP: the “shrunken log2 fold change” value was 0.0339.

As to RRIRARPPRLPRPRPRPQRYPRP, the “shrunken log2 fold change” value was -0.071.

As to RRIRRRPPRLPRPRPRPEKYPRP, the “shrunken log2 fold change” value worked out at 0.135.

On to RRIRDRPPRLPRPRPRPSMPPRP, for which the “shrunken log2 fold change” value was -0.164.

For RRIRKRPPRLPRPRPRPLMEPRP, the “shrunken log2 fold change” value came out at 0.124.

RRIRHRPPRLPRPRPRPIWYPRP: the “shrunken log2 fold change” value was -0.75.

RRIRARPPRLPRPRPRPVDRPRP: the “shrunken log2 fold change” value is 0.193.

RRIRRRPPRLPRPRPRPNSMPRP: the “shrunken log2 fold change” value is -0.233.

For RRIRPRPPRLPRPRPRPCEDPRP, the “shrunken log2 fold change” value is -0.119.

RRIRDRPPRLPRPRPRPQGLPRP: the “shrunken log2 fold change” value worked out at 0.0467.

In the case of RRIRPRPPRLPRPRPRPFLDPRP, the “shrunken log2 fold change” value was -0.413.

In the case of RRIRDRPPRLPRPRPRPYQCPRP, the “shrunken log2 fold change” value was -0.00205.

As to RRIRKRPPRLPRPRPRPQHCPRP, the “shrunken log2 fold change” value is -0.0588.

With RRIRNRPPRLPRPRPRPTFQPRP, the “shrunken log2 fold change” value worked out at 0.0675.

Regarding RRIRHRPPRLPRPRPRPLRIPRP, the “shrunken log2 fold change” value was 0.156.

With RRIRLRPPRLPRPRPRPPSCPRP, the “shrunken log2 fold change” value came out at 0.341.

For RRIRCRPPRLPRPRPRPPLWPRP, the “shrunken log2 fold change” value was 0.32.

As for RRIRIRPPRLPRPRPRPQKRPRP, the “shrunken log2 fold change” value was -0.143.

As to RRIRWRPPRLPRPRPRPVFPPRP, the “shrunken log2 fold change” value is 0.268.

Consider RRIRGRPPRLPRPRPRPSEQPRP, for which the “shrunken log2 fold change” value amounted to 0.301.

Regarding RRIRGRPPRLPRPRPRPGVLPRP, the “shrunken log2 fold change” value came out at 0.912.

For the sequence RRIRRRPPRLPRPRPRPYRFPRP, the “shrunken log2 fold change” value was -0.15.

For RRIRFRPPRLPRPRPRPVVRPRP, the “shrunken log2 fold change” value turned out to be 0.153.

Consider RRIRFRPPRLPRPRPRPFRDPRP, for which the “shrunken log2 fold change” value is -0.276.

On to RRIRTRPPRLPRPRPRPGIDPRP, for which the “shrunken log2 fold change” value is -0.0352.

For the sequence RRIRIRPPRLPRPRPRPYNEPRP, the “shrunken log2 fold change” value was -0.0675.

Take RRIRMRPPRLPRPRPRPYVDPRP: the “shrunken log2 fold change” value was -0.249.

As to RRIRDRPPRLPRPRPRPLCKPRP, the “shrunken log2 fold change” value was -0.224.

RRIRERPPRLPRPRPRPRDDPRP: the “shrunken log2 fold change” value amounted to 0.0953.

As for RRIRHRPPRLPRPRPRPFKTPRP, the “shrunken log2 fold change” value is -0.256.

For RRIRYRPPRLPRPRPRPCYPPRP, the “shrunken log2 fold change” value is -0.37.

RRIRIRPPRLPRPRPRPTSKPRP: the “shrunken log2 fold change” value is -0.207.

For the sequence RRIRERPPRLPRPRPRPGMCPRP, the “shrunken log2 fold change” value was determined as 0.248.

RRIRLRPPRLPRPRPRPLGKPRP: the “shrunken log2 fold change” value is -0.0194.

As for RRIRKRPPRLPRPRPRPDTIPRP, the “shrunken log2 fold change” value is 0.163.

Turning to RRIRIRPPRLPRPRPRPPTHPRP, the “shrunken log2 fold change” value is -0.184.

Turning to RRIRMRPPRLPRPRPRPRITPRP, the “shrunken log2 fold change” value amounted to 0.122.

With RRIRIRPPRLPRPRPRPMASPRP, the “shrunken log2 fold change” value is -0.00783.

Regarding RRIRYRPPRLPRPRPRPWCWPRP, the “shrunken log2 fold change” value was -0.153.

As to RRIRYRPPRLPRPRPRPAHMPRP, the “shrunken log2 fold change” value is -0.015.

For the sequence RRIRHRPPRLPRPRPRPFFNPRP, the “shrunken log2 fold change” value was -0.632.

As for RRIRGRPPRLPRPRPRPNFKPRP, the “shrunken log2 fold change” value worked out at 0.142.

Consider RRIRQRPPRLPRPRPRPFPEPRP, for which the “shrunken log2 fold change” value is -0.0157.

For RRIRCRPPRLPRPRPRPDTQPRP, the “shrunken log2 fold change” value is -0.239.

In the case of RRIRCRPPRLPRPRPRPALDPRP, the “shrunken log2 fold change” value was 0.356.

Regarding RRIRLRPPRLPRPRPRPRHIPRP, the “shrunken log2 fold change” value was found to be 1.19.
